T1: MuSK at the postsynaptic membrane of mouse neuromuscular junctions (levator auris longus muscle) (mouse, UniProt Q61006 22-868)
T1 construct: whole, on cells; Target in tissue immunostaining; also called mouse NMJs; MuSK at the NMJ
T1 sequence (looked up): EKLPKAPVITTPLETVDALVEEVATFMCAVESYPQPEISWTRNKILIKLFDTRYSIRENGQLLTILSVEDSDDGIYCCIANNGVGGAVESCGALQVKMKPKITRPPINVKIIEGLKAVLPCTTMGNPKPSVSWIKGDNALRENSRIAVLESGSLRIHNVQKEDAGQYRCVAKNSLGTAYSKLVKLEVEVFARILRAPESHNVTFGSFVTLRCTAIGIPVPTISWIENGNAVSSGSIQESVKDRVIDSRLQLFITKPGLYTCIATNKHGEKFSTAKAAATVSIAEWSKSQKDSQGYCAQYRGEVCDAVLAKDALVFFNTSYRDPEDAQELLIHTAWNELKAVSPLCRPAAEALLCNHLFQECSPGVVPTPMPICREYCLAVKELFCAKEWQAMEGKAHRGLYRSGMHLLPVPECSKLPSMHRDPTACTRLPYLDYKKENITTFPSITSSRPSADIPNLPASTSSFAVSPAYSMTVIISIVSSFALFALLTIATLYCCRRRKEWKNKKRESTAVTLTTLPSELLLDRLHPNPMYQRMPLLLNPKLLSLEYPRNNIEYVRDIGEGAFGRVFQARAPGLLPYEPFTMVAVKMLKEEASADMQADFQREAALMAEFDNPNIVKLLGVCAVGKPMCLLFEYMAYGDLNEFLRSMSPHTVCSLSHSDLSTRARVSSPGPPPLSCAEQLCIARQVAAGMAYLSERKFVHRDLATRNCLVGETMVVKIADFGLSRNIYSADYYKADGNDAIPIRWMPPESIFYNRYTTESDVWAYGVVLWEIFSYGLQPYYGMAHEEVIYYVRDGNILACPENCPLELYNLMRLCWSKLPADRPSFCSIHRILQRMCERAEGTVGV

B1: recombinant 11-3F6 IgG4 (antibody, V domains shown)
VH: EVQLVESGGGLVKPGGSLRLSCAASGFTFSSYTMDWVRQAPGKGLEWVSSIGSNGDYIYYADSVRGRFTISRDNAKNSLYLQMNSLRPDDTADYYCARGQLAVAGTHFDYWGRGSLVTVSS
VL: DIQMTQSPSSLSASVGDRVTISCRASQKVNKYVNWYQQTPGKAPRLLIYAASTLQSGVPSRFSGSGSGANFTLTISGLQPEDFAIYFCQQSYSPLCTFGQGTKLEIK
notes: Variable regions cloned in an IgG4 backbone and expressed in HEK293-F cells; Bivalent and monospecific; also called homospecific 11-3F6 IgG4
B2: recombinant 13-3B5 IgG4 (antibody, V domains shown)
VH: QVQLVQSGAVVAKPGASVQVSCKTSGYTFTGQYLHWVRQAPGQGLEWIGWINPSSGVTKFAEKFEGRATMTRDTSITTAYIDLRSLRSDDTATYYCATLSLGVYYVGMVAWGQGTLVTVSS
VL: SYELTQPPSVSVSPGQTATITCSGDGLAQQHVYWFQQRPGQAPLLIIYKDIERPSGIPERFSGSSSGTTAMLTISGVQAEDEADYYCQSGDRTATSVLFGGGTKMTVL
notes: Variable regions cloned in an IgG4 backbone and expressed in HEK293-F cells; Bivalent and monospecific; also called homospecific 13-3B5 IgG4; 13-365

Biological target: T1, MuSK at the postsynaptic membrane of …
Test: immunostaining of whole-mount mouse levator auris longus muscle
Protocol: FIG. 6—anti-MuSK/Anti-HIV-b12 exchanged heterospecific IgG4 antibodies were generated using methods detailed in Labrijn, 2014, Nature Protocols and Genmab, Labrijn, 2013, PNAS, which were adjusted to IgG4. These antibodies were tested for MuSK binding in mouse neuromuscular junction (NMJ) in ex vivo levator auris longus muscle. Equivalent anti-MuSK homospecific antibodies were also tested in parallel. The data confirms that both heterospecific MuSK IgG4 antibodies (13-3B5/HIV IgG4 and 11-3F6/HIV IgG4) and homospecific MuSK IgG4 antibodies (13-3B5 IgG4 and 11-3F6 IgG4) bind to MuSK at the NMJ.
To determine the binding characteristics of the recombinant and medium produced antibodies we performed an epitope mapping ELISA as described previously (Huijbers et al., 2016). Truncated versions of the MuSK proteins were immobilized on maxisorp plates and exposed to either antibodies from the single cell cultures 1:10 or to recombinant antibodies. Recombinant antibodies were also used to immunostain mouse levator auris longus muscle overnight at 4° C. at 1:100. AChRs in synaptic regions were labelled with AlexaFluor488 conjugated alpha-bungarotoxin (Life technologies) and bound recombinant antibodies were detected with AlexaFluor594 conjugated goat anti-human IgG (Life technologies). Muscles were imaged on a Leica SP8 confocal laser-scanning microscope and analyzed using Las X software.

Binder	binding result
B1	binds
B2	binds
